The values below come from publication PMC3049928.

Broadly, the Km is the concentration of substrate that gives half-maximal velocity. As a reminder, the kcat is the number of substrate molecules converted per active site and unit of time at saturation. Broadly, the kcat/Km is the turnover number divided by the Michaelis constant.

Substrate in this data set: Nc1ncnc2c1ncn2[C@@H]1O[C@H](COP(=O)(O)O)[C@@H](OP(=O)(O)O)[C@H]1O
Briefly: purified protein. The class given is biochemical, Homo sapiens. As to conditions: varied pNPS, no added alcohol, 50 mM phosphate pH 6.2, 37 °C.

B1: SULT1A1 (human phenol sulfotransferase, human sulfotransferase 1A1) (Homo sapiens) (protein)
chain: MELIQDTSRPPLEYVKGVPLIKYFAEALGPLQSFQARPDDLLISTYPKSGTTWVSQILDMIYQGGDLEKCHRAPIFMRVPFLEFKAPGIPSGMETLKDTPAPRLLKTHLPLALLPQTLLDQKVKVVYVARNAKDVAVSYYHFYHMAKVHPEPGTWDSFLEKFMVGEVSYGSWYQHVQEWWELSRTHPVLYLFYEDMKENPKREIQKILEFVGRSLPEETVDFVVQHTSFKEMKKNPMTNYTTVPQEFMDHSISPFMRKGMAGDWKTTFTVAQNERFDADYAEKMAGCSLSFRSEL
As to B1, the Km is 34 ± 6 µM, the kcat was 0.000633 ± 0.000117 s⁻¹ and the kcat/Km amounted to 18.3 ± 3.33 M⁻¹ s⁻¹.
